In paper doi:10.1101/2024.01.31.578278:

Target: cytochrome c (CytC), recombinant human (human, UniProt P99999 1-105)
Experiment: electrochemical aptasensor

Sequence of cytochrome c (CytC), recombinant human (P99999 whole entry): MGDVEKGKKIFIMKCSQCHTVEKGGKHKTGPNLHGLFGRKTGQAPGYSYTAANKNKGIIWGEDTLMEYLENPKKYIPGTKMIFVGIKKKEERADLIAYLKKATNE

## CCGTGTCTGGGGCCGACCGGCGCATTGGGTACGTTGTTGC (ssDNA, 5' thiol C6 (ThioMC6-D, disulfide reduced); 3' amino modifier (AmMO)) [CytC aptamer]
  Kd: 6.19 ± 1.57 ng/mL
